In patent publication US20200354457A1:

Experiments:
[1] = molecular target: Lag3 on cynomolgus PBMC/T cells (cynomolgus); assay: flow cytometry, non-activated cynomolgus PBMC, 10 µg/ml
[2] = molecular target: Lag3 on cynomolgus PBMC/T cells (cynomolgus); assay: flow cytometry, CD3/CD28-activated cynomolgus PBMC, 10 µg/ml
[3] = molecular target: Lag3 on Lag3+ NFAT Jurkat effector cells (Promega #CS194801); assay: cell-based or functional assay
[4] = molecular target: cynomolgus LAG3 on transiently transfected HEK293F cells (cynomolgus); assay: flow cytometry on HEK293F cells transfected with cyno LAG3, 10 µg/ml

Sequence of control antibody MDX25F7 (VH): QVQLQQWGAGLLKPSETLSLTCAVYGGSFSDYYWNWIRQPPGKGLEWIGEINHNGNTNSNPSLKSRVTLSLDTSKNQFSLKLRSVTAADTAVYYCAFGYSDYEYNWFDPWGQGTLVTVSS
Sequence of control antibody MDX25F7 (VL): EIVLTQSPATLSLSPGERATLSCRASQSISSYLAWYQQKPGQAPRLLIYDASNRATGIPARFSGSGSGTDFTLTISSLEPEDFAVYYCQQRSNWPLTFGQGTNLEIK

| Substance | Percentage of Lag3 positive cells [1] [%] | Percentage of Lag3 positive cells [2] [%] | EC50 of restoration of the NFAT luciferase signal (NFAT Lag3 reporter assay: Lag3+ Jurkat, Raji cells, SED) [3] [µg/mL] | IC50 for near-complete reduction of luciferase activity (modified NFAT Lag3 reporter assay, Lag3+ Jurkat cells alone) [3] [µg/mL] | LAG3 positive cells (%) [4] [%] | Signal intensity (Geo Mean) [4] [Geo Mean] |
| --- | --- | --- | --- | --- | --- | --- |
| BMS-986016 (antibody) | 10.1 | 18.6 | – | – | – | – |
| DP47 (human isotype control) (antibody) | 2.5 | 9.19 | – | – | – | – |
| control antibody MDX25F7 | 11.3 | 22.1 | 1.29 | 0.033 | 48.2 | 1560 |
